The record followed here is US20220267412A1.

In the assay the target is porcine pancreatic elastase (porcine) (UniProt P00772). As to the kind of experiment: cell-based or functional assay.
porcine pancreatic elastase (porcine), sequence (P00772 27-266): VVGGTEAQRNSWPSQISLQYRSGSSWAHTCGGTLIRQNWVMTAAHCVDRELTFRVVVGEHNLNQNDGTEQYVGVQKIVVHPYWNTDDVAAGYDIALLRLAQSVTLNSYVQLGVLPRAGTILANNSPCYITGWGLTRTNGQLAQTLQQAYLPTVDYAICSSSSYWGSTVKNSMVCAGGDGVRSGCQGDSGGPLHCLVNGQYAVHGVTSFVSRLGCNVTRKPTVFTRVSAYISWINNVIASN

Substance “human serpin B1 C344S variant (from UniProt P30740 1-379)” returned an amount of purified protein to fully inhibit PPE (typically 160 nM, 200 uL, +40 mM 2-ME) of 13 µg.
